Source: IntAct's records for PubMed 31515488

B1: Zinc finger protein Aiolos (Homo sapiens), Q9UKT9 (parent)
chain: MEDIQTNAELKSTQEQSVPAESAAVLNDYSLTKSHEMENVDSGEGPANEDEDIGDDSMKVKDEYSERDENVLKSEPMGNAEEPEIPYSYSREYNEYENIKLERHVVSFDSSRPTSGKMNCDVCGLSCISFNVLMVHKRSHTGERPFQCNQCGASFTQKGNLLRHIKLHTGEKPFKCHLCNYACQRRDALTGHLRTHSVEKPYKCEFCGRSYKQRSSLEEHKERCRTFLQSTDPGDTASAEARHIKAEMGSERALVLDRLASNVAKRKSSMPQKFIGEKRHCFDVNYNSSYMYEKESELIQTRMMDQAINNAISYLGAEALRPLVQTPPAPTSEMVPVISSMYPIALTRAEMSNGAPQELEKKSIHLPEKSVPSERGLSPNNSGHDSTDTDSNHEERQNHIYQQNHMVLSRARNGMPLLKEVPRSYELLKPPPICPRDSVKVINKEGEVMDVYRCDHCRVLFLDYVMFTIHMGCHGFRDPFECNMCGYRSHDRYEFSSHIARGEHRALLK
partner: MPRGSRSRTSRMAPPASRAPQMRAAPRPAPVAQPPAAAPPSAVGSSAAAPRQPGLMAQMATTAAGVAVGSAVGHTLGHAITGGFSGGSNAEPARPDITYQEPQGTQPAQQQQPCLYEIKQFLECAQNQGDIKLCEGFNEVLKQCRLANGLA
B2: Ras-related protein Rab-39B (Homo sapiens), Q96DA2 (parent)
chain: MEAIWLYQFRLIVIGDSTVGKSCLIRRFTEGRFAQVSDPTVGVDFFSRLVEIEPGKRIKLQIWDTAGQERFRSITRAYYRNSVGGLLLFDITNRRSFQNVHEWLEETKVHVQPYQIVFVLVGHKCDLDTQRQVTRHEAEKLAAAYGMKYIETSARDAINVEKAFTDLTRDIYELVKRGEITIQEGWEGVKSGFVPNVVHSSEEVVKSERRCLC
B3: Protein LDOC1 (Homo sapiens), O95751 (parent)
chain: MVDELVLLLHALLMRHRALSIENSQLMEQLRLLVCERASLLRQVRPPSCPVPFPETFNGESSRLPEFIVQTASYMLVNENRFCNDAMKVAFLISLLTGEAEEWVVPYIEMDSPILGDYRAFLDEMKQCFGWDDDEDDDDEEEEDDY
partner: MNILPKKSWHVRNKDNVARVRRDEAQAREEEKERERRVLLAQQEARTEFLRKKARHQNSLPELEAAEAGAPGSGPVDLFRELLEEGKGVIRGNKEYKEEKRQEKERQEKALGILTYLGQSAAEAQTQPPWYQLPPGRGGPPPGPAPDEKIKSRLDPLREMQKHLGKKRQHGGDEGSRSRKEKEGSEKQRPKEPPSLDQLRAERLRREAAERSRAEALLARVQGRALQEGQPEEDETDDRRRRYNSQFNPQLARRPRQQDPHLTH
B4: Protein SSX3 (Homo sapiens), Q99909 (parent)
chain: MNGDDTFARRPTVGAQIPEKIQKAFDDIAKYFSKEEWEKMKVSEKIVYVYMKRKYEAMTKLGFKAILPSFMRNKRVTDFQGNDFDNDPNRGNQVQRPQMTFGRLQGIFPKIMPKKPAEEGNVSKEVPEASGPQNDGKQLCPPGKPTTSEKINMISGPKRGEHAWTHRLRERKQLVIYEEISDPEEDDE
partner: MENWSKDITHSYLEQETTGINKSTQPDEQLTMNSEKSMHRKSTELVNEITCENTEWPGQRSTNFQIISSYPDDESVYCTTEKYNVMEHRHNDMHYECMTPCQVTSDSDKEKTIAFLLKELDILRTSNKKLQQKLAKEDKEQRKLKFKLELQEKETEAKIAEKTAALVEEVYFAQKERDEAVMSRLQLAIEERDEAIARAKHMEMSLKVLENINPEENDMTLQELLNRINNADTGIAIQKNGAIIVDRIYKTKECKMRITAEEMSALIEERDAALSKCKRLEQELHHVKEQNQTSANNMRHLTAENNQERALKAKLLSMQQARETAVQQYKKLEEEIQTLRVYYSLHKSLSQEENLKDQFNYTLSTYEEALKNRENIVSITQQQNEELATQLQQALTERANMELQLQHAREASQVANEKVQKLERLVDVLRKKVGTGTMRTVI
B5: Ropporin-1A (Homo sapiens), Q9HAT0 (parent)
chain: MAQTDKPTCIPPELPKMLKEFAKAAIRVQPQDLIQWAADYFEALSRGETPPVRERSERVALCNRAELTPELLKILHSQVAGRLIIRAEELAQMWKVVNLPTDLFNSVMNVGRFTEEIEWLKFLALACSALGVTITKTLKIVCEVLSCDHNGGSPRIPFSTFQFLYTYIAKVDGEISASHVSRMLNYMEQEVIGPDGIITVNDFTQNPRVQLE
B6: Serine/threonine-protein phosphatase 2A activator (Homo sapiens), Q15257 (parent)
chain: MAEGERQPPPDSSEEAPPATQNFIIPKKEIHTVPDMGKWKRSQAYADYIGFILTLNEGVKGKKLTFEYRVSEMWNEVHEEKEQAAKQSVSCDECIPLPRAGHCAPSEAIEKLVALLNTLDRWIDETPPVDQPSRFGNKAYRTWYAKLDEEAENLVATVVPTHLAAAVPEVAVYLKESVGNSTRIDYGTGHEAAFAAFLCCLCKIGVLRVDDQIAIVFKVFNRYLEVMRKLQKTYRMEPAGSQGVWGLDDFQFLPFIWGSSQLIDHPYLEPRHFVDEKAVNENHKDYMFLECILFITEMKTGPFAEHSNQLWNISAVPSWSKVNQGLIRMYKAECLEKFPVIQHFKFGSLLPIHPVTSG
B7: Carboxy-terminal domain RNA polymerase II polypeptide A small phosphatase 1 (Homo sapiens), Q9GZU7 (parent)
chain: MDSSAVITQISKEEARGPLRGKGDQKSAASQKPRSRGILHSLFCCVCRDDGEALPAHSGAPLLVEENGAIPKQTPVQYLLPEAKAQDSDKICVVIDLDETLVHSSFKPVNNADFIIPVEIDGVVHQVYVLKRPHVDEFLQRMGELFECVLFTASLAKYADPVADLLDKWGAFRARLFRESCVFHRGNYVKDLSRLGRDLRRVLILDNSPASYVFHPDNAVPVASWFDNMSDTELHDLLPFFEQLSRVDDVYSVLRQPRPGS
partner: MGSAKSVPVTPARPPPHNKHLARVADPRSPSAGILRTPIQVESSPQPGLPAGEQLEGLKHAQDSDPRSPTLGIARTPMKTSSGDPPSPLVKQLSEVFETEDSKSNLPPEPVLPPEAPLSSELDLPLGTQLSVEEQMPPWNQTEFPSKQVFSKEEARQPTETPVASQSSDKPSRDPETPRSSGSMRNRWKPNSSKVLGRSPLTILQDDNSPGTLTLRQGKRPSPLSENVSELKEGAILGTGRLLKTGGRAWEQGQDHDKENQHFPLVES
B8: Protein LDOC1 (Homo sapiens), O95751 (parent)
chain: B3 chain
partner: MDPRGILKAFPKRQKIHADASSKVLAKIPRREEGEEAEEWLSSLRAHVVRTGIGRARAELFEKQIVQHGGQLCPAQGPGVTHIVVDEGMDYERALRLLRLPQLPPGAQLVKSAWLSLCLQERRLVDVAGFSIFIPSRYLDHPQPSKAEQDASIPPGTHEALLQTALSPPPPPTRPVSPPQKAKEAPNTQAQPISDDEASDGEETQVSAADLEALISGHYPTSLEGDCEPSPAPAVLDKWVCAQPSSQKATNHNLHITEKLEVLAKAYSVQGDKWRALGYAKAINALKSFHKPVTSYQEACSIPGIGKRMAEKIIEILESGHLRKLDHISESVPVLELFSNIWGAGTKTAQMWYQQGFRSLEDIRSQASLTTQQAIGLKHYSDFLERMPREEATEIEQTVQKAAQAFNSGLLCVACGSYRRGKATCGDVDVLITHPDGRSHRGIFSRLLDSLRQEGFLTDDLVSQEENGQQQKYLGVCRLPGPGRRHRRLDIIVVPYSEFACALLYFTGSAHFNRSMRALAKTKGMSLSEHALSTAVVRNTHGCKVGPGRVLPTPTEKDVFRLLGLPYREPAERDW

Variants of: B1
Details: with chch2_human CHCHD2, Q9Y6H1

| effect of a mutation on the interaction | Variant |
| --- | --- |
| with no effect | N119D |

Variants of: B2
Details: with rufy1_human RUFY1, Q96T51
Sequence of rufy1_human RUFY1, Q96T51 (Q96T51 whole entry): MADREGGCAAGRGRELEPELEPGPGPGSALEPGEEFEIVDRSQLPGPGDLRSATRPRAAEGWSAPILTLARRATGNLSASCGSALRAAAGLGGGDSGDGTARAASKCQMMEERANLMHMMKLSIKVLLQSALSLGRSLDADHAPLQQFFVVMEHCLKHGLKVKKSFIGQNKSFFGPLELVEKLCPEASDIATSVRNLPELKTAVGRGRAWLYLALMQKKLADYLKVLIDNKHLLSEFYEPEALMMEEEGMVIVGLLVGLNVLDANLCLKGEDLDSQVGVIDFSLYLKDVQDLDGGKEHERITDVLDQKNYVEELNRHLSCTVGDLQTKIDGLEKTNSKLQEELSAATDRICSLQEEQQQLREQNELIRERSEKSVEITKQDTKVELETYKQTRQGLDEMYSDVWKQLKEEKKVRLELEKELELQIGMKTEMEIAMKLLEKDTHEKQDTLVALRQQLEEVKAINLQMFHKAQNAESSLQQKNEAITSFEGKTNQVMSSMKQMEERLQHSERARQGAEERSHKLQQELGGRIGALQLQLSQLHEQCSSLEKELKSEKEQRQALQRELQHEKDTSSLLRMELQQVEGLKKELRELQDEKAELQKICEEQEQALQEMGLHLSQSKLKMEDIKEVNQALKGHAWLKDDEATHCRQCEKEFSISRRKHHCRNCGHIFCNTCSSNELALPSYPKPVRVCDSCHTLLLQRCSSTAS

| effect of a mutation on the interaction | Variant |
| --- | --- |
| disrupting interaction strength | R177S |

Variants of: B3
Details: with leng1_human LENG1, Q96BZ8

| effect of a mutation on the interaction | Variant |
| --- | --- |
| disrupting interaction strength | L12H |

Variants of: B4
Details: with mipo1_human MIPOL1, Q8TD10

| Variant | effect of a mutation on the interaction |
| --- | --- |
| T77A | with no effect |
| R159S | with no effect |

Variants of: B5
Details: with lnx1_human LNX1, Q8TBB1
Sequence of lnx1_human LNX1, Q8TBB1 (Q8TBB1 whole entry): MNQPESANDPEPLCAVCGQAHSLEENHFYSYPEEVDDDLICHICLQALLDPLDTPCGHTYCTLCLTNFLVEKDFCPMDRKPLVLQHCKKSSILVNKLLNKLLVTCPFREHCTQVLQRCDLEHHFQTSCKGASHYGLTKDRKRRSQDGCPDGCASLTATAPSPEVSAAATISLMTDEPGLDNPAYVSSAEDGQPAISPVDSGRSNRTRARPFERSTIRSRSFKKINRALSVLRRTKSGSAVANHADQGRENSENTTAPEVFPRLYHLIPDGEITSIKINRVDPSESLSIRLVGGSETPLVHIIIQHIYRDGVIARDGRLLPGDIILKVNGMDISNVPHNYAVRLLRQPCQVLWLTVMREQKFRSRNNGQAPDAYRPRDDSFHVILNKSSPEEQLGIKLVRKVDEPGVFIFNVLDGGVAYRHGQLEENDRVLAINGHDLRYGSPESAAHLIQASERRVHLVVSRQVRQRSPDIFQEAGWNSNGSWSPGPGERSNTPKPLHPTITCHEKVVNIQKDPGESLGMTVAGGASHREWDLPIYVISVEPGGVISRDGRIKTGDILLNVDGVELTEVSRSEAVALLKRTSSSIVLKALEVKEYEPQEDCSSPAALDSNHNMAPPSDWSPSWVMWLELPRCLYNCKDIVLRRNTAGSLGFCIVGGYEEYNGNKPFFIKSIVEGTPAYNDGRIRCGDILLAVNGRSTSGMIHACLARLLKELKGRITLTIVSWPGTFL

| effect of a mutation on the interaction | Variant |
| --- | --- |
| with no effect | C62W |

Variants of: B5
Details: with hnrl1_human HNRNPUL1, Q9BUJ2
Sequence of hnrl1_human HNRNPUL1, Q9BUJ2 (Q9BUJ2 whole entry): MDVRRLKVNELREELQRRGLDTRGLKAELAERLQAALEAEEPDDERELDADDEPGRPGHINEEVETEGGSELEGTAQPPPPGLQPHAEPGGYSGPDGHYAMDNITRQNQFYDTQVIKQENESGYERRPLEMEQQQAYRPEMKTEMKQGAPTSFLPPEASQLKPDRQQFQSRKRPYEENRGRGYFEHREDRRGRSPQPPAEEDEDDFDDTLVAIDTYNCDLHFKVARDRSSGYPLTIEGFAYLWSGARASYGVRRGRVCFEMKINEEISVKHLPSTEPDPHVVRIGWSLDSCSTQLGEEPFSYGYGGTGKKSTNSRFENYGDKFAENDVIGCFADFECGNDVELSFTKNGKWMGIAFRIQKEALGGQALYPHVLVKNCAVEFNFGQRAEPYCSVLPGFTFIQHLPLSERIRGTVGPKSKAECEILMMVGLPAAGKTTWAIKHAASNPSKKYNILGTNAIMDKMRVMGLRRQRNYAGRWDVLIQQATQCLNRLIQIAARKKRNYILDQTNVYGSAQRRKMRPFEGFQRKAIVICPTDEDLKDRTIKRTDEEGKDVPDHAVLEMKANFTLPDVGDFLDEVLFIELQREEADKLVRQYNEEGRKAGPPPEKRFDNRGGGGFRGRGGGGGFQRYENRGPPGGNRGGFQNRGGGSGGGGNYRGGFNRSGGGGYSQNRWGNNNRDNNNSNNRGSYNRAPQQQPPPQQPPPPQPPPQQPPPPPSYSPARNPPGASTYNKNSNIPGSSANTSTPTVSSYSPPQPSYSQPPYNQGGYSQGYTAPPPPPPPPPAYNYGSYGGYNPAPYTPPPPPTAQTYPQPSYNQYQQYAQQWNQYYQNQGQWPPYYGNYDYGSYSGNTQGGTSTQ

| effect of a mutation on the interaction | Variant |
| --- | --- |
| with no effect | C62W |

Variants of: B5
Details: with aapk1_human PRKAA1, Q13131
Sequence of aapk1_human PRKAA1, Q13131 (Q13131 whole entry, looked up): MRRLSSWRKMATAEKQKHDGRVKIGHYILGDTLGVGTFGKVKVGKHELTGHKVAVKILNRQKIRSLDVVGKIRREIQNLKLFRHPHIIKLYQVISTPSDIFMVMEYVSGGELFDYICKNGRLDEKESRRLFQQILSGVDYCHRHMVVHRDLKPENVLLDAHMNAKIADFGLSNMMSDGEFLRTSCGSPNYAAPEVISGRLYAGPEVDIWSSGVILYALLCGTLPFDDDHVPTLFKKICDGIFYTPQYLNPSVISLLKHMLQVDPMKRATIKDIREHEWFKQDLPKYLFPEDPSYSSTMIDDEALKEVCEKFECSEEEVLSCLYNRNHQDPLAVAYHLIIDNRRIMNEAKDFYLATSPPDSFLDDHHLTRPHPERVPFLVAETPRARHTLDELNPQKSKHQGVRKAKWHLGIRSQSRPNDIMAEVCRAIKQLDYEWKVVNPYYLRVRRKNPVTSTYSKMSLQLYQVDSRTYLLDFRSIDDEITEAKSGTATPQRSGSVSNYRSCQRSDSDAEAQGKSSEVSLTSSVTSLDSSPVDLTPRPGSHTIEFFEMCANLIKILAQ

| effect of a mutation on the interaction | Variant |
| --- | --- |
| with no effect | C62W |

Variants of: B6
Details: with amot_human AMOT

| effect of a mutation on the interaction | Variant |
| --- | --- |
| with no effect | K218T |

Variants of: B7
Details: with cdca3_human CDCA3, Q99618

| effect of a mutation on the interaction | Variant |
| --- | --- |
| with no effect | H57D |
| with no effect | A56T |

Variants of: B8
Details: with dpoll_human POLL

| effect of a mutation on the interaction | Variant |
| --- | --- |
| disrupting interaction strength | L12H |
